Measurements published in the supplement of paper PMC9112550, “Optimization of the antimicrobial peptide Bac7 by deep mutational scanning” (BMC Biology, 2022).

System: Escherichia coli TOP10
Experiment: shrunken log2 fold change of peptide-encoding DNA abundance (4.5 h post-induction vs induction); higher = less antimicrobial activity (less host growth inhibition)
Settings: time post-induction: 4.5 h; library: site-saturation at positions 5, 18, 19, 20
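Also: peptides expressed intracellularly from a pBAD plasmid library in pooled LB shake-flask culture, induced with 0.3% L-arabinose, DNA abundance read by NGS, three biological replicates, DESeq2 with apeglm shrinkage.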

Sequence	shrunken log2 fold change
RRIRVRPPRLPRPRPRPQAHPRP	-0.209
RRIRIRPPRLPRPRPRPAGIPRP	-0.437
RRIRTRPPRLPRPRPRPIIFPRP	-0.0206
RRIRCRPPRLPRPRPRPPRMPRP	0.671
RRIRLRPPRLPRPRPRPIWCPRP	-0.0514
RRIRARPPRLPRPRPRPGQAPRP	-0.0216
RRIRDRPPRLPRPRPRPRKQPRP	-0.0319
RRIRYRPPRLPRPRPRPVCRPRP	-0.0607
RRIRQRPPRLPRPRPRPGHNPRP	0.0106
RRIRARPPRLPRPRPRPIKTPRP	0.213
RRIRYRPPRLPRPRPRPPTPPRP	0.104
RRIRWRPPRLPRPRPRPSGCPRP	-0.0452
RRIRSRPPRLPRPRPRPVAIPRP	-0.28
RRIRRRPPRLPRPRPRPRLEPRP	0.508
RRIRHRPPRLPRPRPRPLIWPRP	-0.538
RRIRCRPPRLPRPRPRPRTKPRP	0.246
RRIRYRPPRLPRPRPRPFDLPRP	-0.967
RRIRQRPPRLPRPRPRPPCEPRP	-0.00701
RRIRVRPPRLPRPRPRPYNKPRP	-0.707
RRIRWRPPRLPRPRPRPGIWPRP	0.217
RRIRLRPPRLPRPRPRPLFIPRP	-0.539
RRIRMRPPRLPRPRPRPKCTPRP	0.995
RRIRVRPPRLPRPRPRPVMTPRP	0.0124
RRIRVRPPRLPRPRPRPKGVPRP	0.472
RRIRVRPPRLPRPRPRPCDAPRP	0.121

Sequence	shrunken log2 fold change
RRIRQRPPRLPRPRPRPSRKPRP	0.111
RRIRVRPPRLPRPRPRPDTSPRP	-0.124
RRIRNRPPRLPRPRPRPKWWPRP	0.0325
RRIRLRPPRLPRPRPRPPFEPRP	0.182
RRIRERPPRLPRPRPRPILWPRP	-0.161
RRIRARPPRLPRPRPRPWRIPRP	-0.0489
RRIRSRPPRLPRPRPRPWAIPRP	-0.191
RRIRVRPPRLPRPRPRPHCQPRP	-0.401
RRIRARPPRLPRPRPRPCCTPRP	0.485
RRIRYRPPRLPRPRPRPFPRPRP	-0.0964
RRIRLRPPRLPRPRPRPIVFPRP	-0.0377
RRIRMRPPRLPRPRPRPEKWPRP	1.56
RRIRSRPPRLPRPRPRPAPTPRP	0.732
RRIRCRPPRLPRPRPRPFIQPRP	-1.04
RRIRARPPRLPRPRPRPTFTPRP	0.51
RRIRVRPPRLPRPRPRPAYRPRP	-0.0828
RRIRCRPPRLPRPRPRPFAPPRP	0.229
RRIRERPPRLPRPRPRPYPFPRP	-0.52
RRIRMRPPRLPRPRPRPEDWPRP	3.63
RRIRDRPPRLPRPRPRPWRVPRP	0.28
RRIRTRPPRLPRPRPRPHCAPRP	-0.0401
RRIRPRPPRLPRPRPRPDHPPRP	-0.147
RRIRCRPPRLPRPRPRPFFKPRP	-0.197
RRIRFRPPRLPRPRPRPDPKPRP	0.117
RRIRARPPRLPRPRPRPLQRPRP	0.58

Sequence	shrunken log2 fold change
RRIRKRPPRLPRPRPRPNGWPRP	0.452
RRIRPRPPRLPRPRPRPKYVPRP	-0.132
RRIRDRPPRLPRPRPRPHHWPRP	0.172
RRIRPRPPRLPRPRPRPPHRPRP	0.401
RRIRIRPPRLPRPRPRPETLPRP	-0.102
RRIRHRPPRLPRPRPRPSWQPRP	0.0601
RRIRFRPPRLPRPRPRPMKWPRP	-0.0607
RRIRCRPPRLPRPRPRPNYRPRP	-0.077
RRIRIRPPRLPRPRPRPDISPRP	-0.0405
RRIRARPPRLPRPRPRPAQVPRP	0.617
RRIRVRPPRLPRPRPRPHTSPRP	-0.643
RRIRTRPPRLPRPRPRPEQGPRP	0.196
RRIRIRPPRLPRPRPRPNLVPRP	-0.175
RRIRERPPRLPRPRPRPMNSPRP	-0.0427
RRIRKRPPRLPRPRPRPWSQPRP	-0.0225
RRIRIRPPRLPRPRPRPGTGPRP	0.0659
RRIRPRPPRLPRPRPRPFLNPRP	-0.622
RRIRERPPRLPRPRPRPCYSPRP	-0.704
RRIRRRPPRLPRPRPRPQKHPRP	0.0365
RRIRDRPPRLPRPRPRPTAGPRP	0.534
RRIRCRPPRLPRPRPRPGKPPRP	0.506
RRIRRRPPRLPRPRPRPVCAPRP	0.547
RRIRFRPPRLPRPRPRPNCWPRP	-0.358
RRIRGRPPRLPRPRPRPQDPPRP	0.337
RRIRTRPPRLPRPRPRPSEHPRP	-0.383

Sequence	shrunken log2 fold change
RRIRNRPPRLPRPRPRPKFHPRP	-0.078
RRIRDRPPRLPRPRPRPESAPRP	0.345
RRIRFRPPRLPRPRPRPFYEPRP	-0.886
RRIRWRPPRLPRPRPRPIMHPRP	-0.174
RRIRVRPPRLPRPRPRPDRYPRP	-0.00296
RRIRYRPPRLPRPRPRPFESPRP	-0.0101
RRIRPRPPRLPRPRPRPSVHPRP	-0.289
RRIRPRPPRLPRPRPRPVRHPRP	0.119
RRIRTRPPRLPRPRPRPGNWPRP	0.275
RRIRNRPPRLPRPRPRPWAYPRP	-0.0322
RRIRYRPPRLPRPRPRPWERPRP	0.0306
RRIRLRPPRLPRPRPRPHVWPRP	0.198
RRIRCRPPRLPRPRPRPRLGPRP	0.485
RRIRARPPRLPRPRPRPDEKPRP	0.447
RRIRYRPPRLPRPRPRPAKHPRP	-0.912
RRIRLRPPRLPRPRPRPDYHPRP	-0.576
RRIRHRPPRLPRPRPRPQPDPRP	-0.0791
RRIRDRPPRLPRPRPRPCTRPRP	0.0736
RRIRSRPPRLPRPRPRPTDHPRP	-0.339
RRIRMRPPRLPRPRPRPLFSPRP	0.0255
RRIRFRPPRLPRPRPRPEYPPRP	-0.617
RRIRVRPPRLPRPRPRPYAVPRP	-0.481
RRIRGRPPRLPRPRPRPFQCPRP	-0.0282
RRIRDRPPRLPRPRPRPGNDPRP	0.0652
RRIRNRPPRLPRPRPRPDNAPRP	-0.0737

Sequence	shrunken log2 fold change
RRIRDRPPRLPRPRPRPWHMPRP	-0.301
RRIRQRPPRLPRPRPRPDCVPRP	-0.0384
RRIRKRPPRLPRPRPRPAIFPRP	0.233
RRIRQRPPRLPRPRPRPCPQPRP	-0.153
RRIRTRPPRLPRPRPRPVRLPRP	-0.0555
RRIRHRPPRLPRPRPRPWFPPRP	-0.379
RRIRWRPPRLPRPRPRPYVNPRP	-0.355
RRIRFRPPRLPRPRPRPWVHPRP	0.0589
RRIRWRPPRLPRPRPRPHNIPRP	-0.691
RRIRMRPPRLPRPRPRPDHSPRP	0.318
RRIRRRPPRLPRPRPRPMWWPRP	0.291
RRIRMRPPRLPRPRPRPYAIPRP	-0.0168
RRIRFRPPRLPRPRPRPVAWPRP	0.119
RRIRPRPPRLPRPRPRPRKDPRP	0.173
RRIRSRPPRLPRPRPRPQGVPRP	0.225
RRIRSRPPRLPRPRPRPYPFPRP	-0.716
RRIRDRPPRLPRPRPRPHYEPRP	-0.0202
RRIRPRPPRLPRPRPRPKDMPRP	-0.0163
RRIRIRPPRLPRPRPRPMFYPRP	-1.25
RRIRHRPPRLPRPRPRPDNTPRP	-0.0928
RRIRLRPPRLPRPRPRPNATPRP	0.0161
RRIRKRPPRLPRPRPRPKRWPRP	0.906
RRIRNRPPRLPRPRPRPAMTPRP	0.157
RRIRCRPPRLPRPRPRPRENPRP	0.439
RRIRKRPPRLPRPRPRPCMWPRP	-0.189

Sequence	shrunken log2 fold change
RRIRQRPPRLPRPRPRPTAYPRP	0.14
RRIRNRPPRLPRPRPRPCTRPRP	-0.184
RRIRDRPPRLPRPRPRPNFCPRP	-0.00997
RRIRNRPPRLPRPRPRPCRDPRP	-0.0123
RRIRKRPPRLPRPRPRPLQHPRP	0.657
RRIRARPPRLPRPRPRPETEPRP	1.39
RRIRNRPPRLPRPRPRPWFGPRP	-0.208
RRIRDRPPRLPRPRPRPKQYPRP	-0.839
RRIRPRPPRLPRPRPRPGHGPRP	0.296
RRIRWRPPRLPRPRPRPCSRPRP	-0.162
RRIRYRPPRLPRPRPRPSEHPRP	-0.488
RRIRYRPPRLPRPRPRPHKMPRP	-0.153
RRIRCRPPRLPRPRPRPLKGPRP	-0.204
RRIRQRPPRLPRPRPRPTTLPRP	-0.196
RRIRMRPPRLPRPRPRPIQDPRP	-0.114
RRIRVRPPRLPRPRPRPDVQPRP	-0.0199
RRIRHRPPRLPRPRPRPADKPRP	-0.245
RRIRERPPRLPRPRPRPLDYPRP	-0.163
RRIRERPPRLPRPRPRPINCPRP	-0.00179
RRIRSRPPRLPRPRPRPDIAPRP	-0.0218
RRIRERPPRLPRPRPRPWMRPRP	0.079
RRIRQRPPRLPRPRPRPIQRPRP	-0.0376
RRIRPRPPRLPRPRPRPCPLPRP	-0.208
RRIRKRPPRLPRPRPRPYLMPRP	-0.0192
RRIRPRPPRLPRPRPRPMFFPRP	-0.207
